The record followed here is US20230287120A1 (ALLOGENE THERAPEUTICS, published 2023).

B1: 4C6 (other)
CAR: QVQLQESGPGLVKPSETLSLTCTVSGDSISSYYWSWIRQPPGKGLEWIGYMYYSGITNYNPSLKSRVNISLDTSKNQFSLKLGSVTAADTAVYYCARLSVAGFYFDYWGQGTLVTVSSGGGGSGGGGSGGGGSGGGGSEIVLTQSPGTLSLSPGERATLSCRASQSVTRSYLAWYQQKPGQAPRLLIYGASSRATDIPDRFSGSGSGTDFTLTINRLEPEDFAVYYCQQYGTSPLTFGGGTKVEIKTTTPAPRPPTPAPTIASQPLSLRPEACRPAAGGAVHTRGLDFACDIYIWAPLAGTCGVLLLSLVITKRGRKKLLYIFKQPFMRPVQTTQEEDGCSCRFPEEEEGGCELRVKFSRSADAPAYQQGQNQLYNELNLGRREEYDVLDKRRGRDPEMGGKPRRKNPQEGLYNELQKDKMAEAYSEIGMKGERRRGKGHDGLYQGLSTATKDTYDALHMQALPPR
notes: also called anti-DLL3 CAR with 4C6 scFv, on primary T cells
B2: 10G1-K (other)
CAR: EVQLLESGGGLVQPGGSLRLSCAASGFTFSSYAMNWVRQAPGKGLEWVSTISGSGGSTYYADSVKGRFTISRDNSKNTLYLQMNSLRAEDTAVFYCAIDPEYYDILTGGDYWGQGTLVTVSSGGGGSGGGGSGGGGGSGGGGSDIQMTQSPSAMSASVGDRVTITCRASQGISNYLAWFQQKPGKVPKRLIYAASSLQSGVPSRFSGSGSGTEFTLTISSLQPEDFATYFCLQHDSFPLTFGGGTKVEIKTTTPAPRPPTPAPTIASQPLSLRPEACRPAAGGAVHTRGLDFACDIYIWAPLAGTCGVLLLSLVITKRGRKKLLYIFKQPFMRPVQTTQEEDGCSCRFPEEEEGGCELRVKFSRSADAPAYQQGQNQLYNELNLGRREEYDVLDKRRGRDPEMGGKPRRKNPQEGLYNELQKDKMAEAYSEIGMKGERRRGKGHDGLYQGLSTATKDTYDALHMQALPPR
notes: also called anti-DLL3 CAR with 10G1-K scFv, on primary T cells
B3: 4H8 (other)
CAR: QVQLQQSGPGLVKPSQTLSLTCAISGDSVSSNSATWNWIRQSPSRGLEWLGRTYYRSKWYDDYAVSVKSRITINPDTSKNHLSLHLNSVTPEDTAVYYCAGGGLVGAPDGFDVWGQGTMVTVSSGGGGSGGGGSGGGGSGGGGSQSVLTQPPSASGTPGQRVTISCSGSSSNIGSDPVNWYQQLPGTAPKLLIYSNNQRPSGVPDRFSGSKSGTSASLAISGLQSEDEADYYCSAWDDSLNGYVFGTGTKVTVLTTTPAPRPPTPAPTIASQPLSLRPEACRPAAGGAVHTRGLDFACDIYIWAPLAGTCGVLLLSLVITKRGRKKLLYIFKQPFMRPVQTTQEEDGCSCRFPEEEEGGCELRVKFSRSADAPAYQQGQNQLYNELNLGRREEYDVLDKRRGRDPEMGGKPRRKNPQEGLYNELQKDKMAEAYSEIGMKGERRRGKGHDGLYQGLSTATKDTYDALHMQALPPR
notes: also called anti-DLL3 CAR with 4H8 scFv, on primary T cells
B4: 9H12-K (other)
CAR: QVQLVQSGAEVKKPGASVKVSCKASGYTFTGYSIHWVRQAPGQGLEWMGWINPNSGGTFYAQKFQGRVTMTRDTSISTVYMELSRLRSDDTAVYYCARDGWGDYYYYGLDVWGQGTTVTVSLGGGGSGGGGSGGGGSGGGGSDIQMTQSPSSVSASVGDRVTITCRASQDISSWLAWYQQKPGKAPKLLIYTASSLQGGVPSRFSGSGSGTDFTLTISSLQPEDLATYSCQQANVFPYTFGQGTKLEIKTTTPAPRPPTPAPTIASQPLSLRPEACRPAAGGAVHTRGLDFACDIYIWAPLAGTCGVLLLSLVITKRGRKKLLYIFKQPFMRPVQTTQEEDGCSCRFPEEEEGGCELRVKFSRSADAPAYQQGQNQLYNELNLGRREEYDVLDKRRGRDPEMGGKPRRKNPQEGLYNELQKDKMAEAYSEIGMKGERRRGKGHDGLYQGLSTATKDTYDALHMQALPPR
notes: also called anti-DLL3 CAR with 9H12-K scFv, on primary T cells

The first assay concerns the target T1, Flag tagged recombinant DLL3 (Adipogen) (Homo sapiens (Human), UniProt Q9NYJ7 27-492).
T1 construct: Bought reagent; also called Flag-DLL3
T1 sequence: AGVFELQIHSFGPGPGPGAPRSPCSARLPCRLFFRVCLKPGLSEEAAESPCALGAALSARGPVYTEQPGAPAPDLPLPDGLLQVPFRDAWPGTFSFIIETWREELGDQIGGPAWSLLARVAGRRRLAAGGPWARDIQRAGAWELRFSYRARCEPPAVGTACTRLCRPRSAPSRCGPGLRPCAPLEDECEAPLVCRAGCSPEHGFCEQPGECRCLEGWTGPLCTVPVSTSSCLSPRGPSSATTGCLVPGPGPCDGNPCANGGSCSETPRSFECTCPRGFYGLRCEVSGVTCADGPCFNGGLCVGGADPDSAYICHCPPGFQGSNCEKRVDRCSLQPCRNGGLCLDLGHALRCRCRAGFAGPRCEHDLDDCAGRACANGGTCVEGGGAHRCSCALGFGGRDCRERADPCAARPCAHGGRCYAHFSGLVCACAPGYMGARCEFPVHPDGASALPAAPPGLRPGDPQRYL
Nature of the assay: flow cytometry, percent of T cells that recognise recombinant DLL3, Donor 772.
Protocol: (§1) To determine the percentage of T cells that were successfully transduced with DLL3 CAR, T cells were first incubated with 1 ug/ml Flag tagged recombinant DLL3 (Adipogen) in PBS+1% BSA for 20 minutes at 4 C.
With B1, the Transduction efficiency was determined as 25.2%.
The same measure, in the same setting: with B2 the figure was 33.7%; with B3, 27.2%; with B4, 35.6%.

The target in the next assay is T1, Flag tagged recombinant DLL3 (Adipogen). Nature of the assay: flow cytometry, percent of T cells that recognise recombinant DLL3, Donor 503. For orientation: A flow cytometer gives signals particle by particle.
Protocol: as §1
With B1, the Transduction efficiency stood at 56.9%.
Same read-out and setting: the figure for B2 is 53.7%.
On the same count and under the same terms, with B3 the figure was 39.3%; with B4, 41.4%.

A further assay has the same target. Nature of the assay: flow cytometry, primary T cells with the CAR, 1 ug/ml Flag tagged recombinant DLL3, PE anti-Flag.
Protocol: as §1
For B2, the “Rec-DLL3 gate, percent of live CD3+ cells” value (“Rec-DLL3 gate, percent” below) is 51.8%.
Take B3: the “Rec-DLL3 gate, percent” value came out at 77.9%.
Take B4: the “Rec-DLL3 gate, percent” value was determined as 56.3%.
